Results on 45 variants are retold here after the supplement of paper PMC10219994.

B1: library; a variant is named by its letters at N, in order (parent)
chain: GAGACCGCAACTGAAAAGTTGTGGNNNNNATAGTGAGTCGCTGCCTGCAAAGACACAACT

± gives the standard deviation of the averaged measurements.

In the series the parent is B1. The series is described as follows: ligation selection enrichment (abundance after / before one-round selection) (fold); higher = more template-directed ligation activity. As to conditions: with T7Psub CACGGAUGCUAAUACGACUCACUAUA; MgCl2 25 mM; 42 °C; 4 h; pH 8.5. The method, then: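 Lib-N5 ligase ribozyme library: five randomized core nucleotides (including the GGA motif of N8-1) within the fixed N8-1 ribozyme flanks, transcribed by T7 RNA polymerase with a 5'-triphosphate. The library (0.75 uM) was reacted with substrate T7Psub (6 uM) in 50 mM EPPS pH 8.5 with 25 mM MgCl2 at 42 C for 4 h. Ligated products were PAGE-purified, reverse transcribed and MiSeq sequenced; enrichment = abundance after selection / abundance before selection, with two independent replicates. The full transcript is built from the printed template flanks.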
For GAGACCGCAACTGAAAAGTTGTGGGAAGCATAGTGAGTCGCTGCCTGCAAAGACACAACT [GAAGC], the ligation selection enrichment amounted to 0.167 ± 0.033.
Then GAGACCGCAACTGAAAAGTTGTGGGAAGAATAGTGAGTCGCTGCCTGCAAAGACACAACT [GAAGA], with 0.306 ± 0.024; and GAGACCGCAACTGAAAAGTTGTGGGAAGGATAGTGAGTCGCTGCCTGCAAAGACACAACT [GAAGG], with 0.571 ± 0.21.
In the case of GAGACCGCAACTGAAAAGTTGTGGTAAGTATAGTGAGTCGCTGCCTGCAAAGACACAACT [TAAGT], the ligation selection enrichment turned out to be 0.0779 ± 0.028.
As to GAGACCGCAACTGAAAAGTTGTGGTAAGGATAGTGAGTCGCTGCCTGCAAAGACACAACT [TAAGG], the ligation selection enrichment was found to be 0.733 ± 0.15.
To GAGACCGCAACTGAAAAGTTGTGGTAAGCATAGTGAGTCGCTGCCTGCAAAGACACAACT [TAAGC] belongs 0.165 ± 0.016; to GAGACCGCAACTGAAAAGTTGTGGTAAGAATAGTGAGTCGCTGCCTGCAAAGACACAACT [TAAGA], 0.977 ± 0.16.
For GAGACCGCAACTGAAAAGTTGTGGAAACTATAGTGAGTCGCTGCCTGCAAAGACACAACT [AAACT], the ligation selection enrichment worked out at 1.21 ± 0.29.
As to GAGACCGCAACTGAAAAGTTGTGGAAACGATAGTGAGTCGCTGCCTGCAAAGACACAACT [AAACG], the ligation selection enrichment was 0.742 ± 0.064.
As to GAGACCGCAACTGAAAAGTTGTGGAAACAATAGTGAGTCGCTGCCTGCAAAGACACAACT [AAACA], the ligation selection enrichment stood at 0.177 ± 0.013.
As to GAGACCGCAACTGAAAAGTTGTGGAAACCATAGTGAGTCGCTGCCTGCAAAGACACAACT [AAACC], the ligation selection enrichment came to 0.196 ± 0.0049.
As to GAGACCGCAACTGAAAAGTTGTGGTAACGATAGTGAGTCGCTGCCTGCAAAGACACAACT [TAACG], the ligation selection enrichment is 0.8672 ± 0.0053.
Take GAGACCGCAACTGAAAAGTTGTGGTAACAATAGTGAGTCGCTGCCTGCAAAGACACAACT [TAACA]: the ligation selection enrichment came out at 0.186 ± 0.043.
With GAGACCGCAACTGAAAAGTTGTGGTAACCATAGTGAGTCGCTGCCTGCAAAGACACAACT [TAACC], the ligation selection enrichment was 0.173 ± 0.011.
GAGACCGCAACTGAAAAGTTGTGGTAACTATAGTGAGTCGCTGCCTGCAAAGACACAACT [TAACT]: the ligation selection enrichment turned out to be 0.925 ± 0.31.
Turning to GAGACCGCAACTGAAAAGTTGTGGGAAAGATAGTGAGTCGCTGCCTGCAAAGACACAACT [GAAAG], the ligation selection enrichment worked out at 0.328 ± 0.021.
In the case of GAGACCGCAACTGAAAAGTTGTGGGAAATATAGTGAGTCGCTGCCTGCAAAGACACAACT [GAAAT], the ligation selection enrichment is 0.55 ± 0.2.
To GAGACCGCAACTGAAAAGTTGTGGGAAAAATAGTGAGTCGCTGCCTGCAAAGACACAACT [GAAAA] belongs 0.135 ± 0.02.
GAGACCGCAACTGAAAAGTTGTGGGAAACATAGTGAGTCGCTGCCTGCAAAGACACAACT [GAAAC]: the ligation selection enrichment stood at 0.146 ± 0.044.
As to GAGACCGCAACTGAAAAGTTGTGGAAAAGATAGTGAGTCGCTGCCTGCAAAGACACAACT [AAAAG], the ligation selection enrichment came out at 0.226 ± 0.025.
As to GAGACCGCAACTGAAAAGTTGTGGAAAATATAGTGAGTCGCTGCCTGCAAAGACACAACT [AAAAT], the ligation selection enrichment turned out to be 0.461 ± 0.12.
To GAGACCGCAACTGAAAAGTTGTGGAAAACATAGTGAGTCGCTGCCTGCAAAGACACAACT [AAAAC] belongs 0.17 ± 0.018; to GAGACCGCAACTGAAAAGTTGTGGAAAAAATAGTGAGTCGCTGCCTGCAAAGACACAACT [AAAAA], 0.191 ± 0.076; to GAGACCGCAACTGAAAAGTTGTGGCAAATATAGTGAGTCGCTGCCTGCAAAGACACAACT [CAAAT], 0.595 ± 0.18.
Consider GAGACCGCAACTGAAAAGTTGTGGCAAACATAGTGAGTCGCTGCCTGCAAAGACACAACT [CAAAC], for which the ligation selection enrichment worked out at 0.135 ± 0.028.
GAGACCGCAACTGAAAAGTTGTGGCAAAGATAGTGAGTCGCTGCCTGCAAAGACACAACT [CAAAG]: the ligation selection enrichment was found to be 0.162 ± 0.03.
On to GAGACCGCAACTGAAAAGTTGTGGCAAAAATAGTGAGTCGCTGCCTGCAAAGACACAACT [CAAAA], for which the ligation selection enrichment came to 0.131 ± 0.011.
For GAGACCGCAACTGAAAAGTTGTGGCAACAATAGTGAGTCGCTGCCTGCAAAGACACAACT [CAACA], the ligation selection enrichment was found to be 0.1345 ± 0.00036.
Take GAGACCGCAACTGAAAAGTTGTGGCAACTATAGTGAGTCGCTGCCTGCAAAGACACAACT [CAACT]: the ligation selection enrichment stood at 0.615 ± 0.11.
With GAGACCGCAACTGAAAAGTTGTGGCAACCATAGTGAGTCGCTGCCTGCAAAGACACAACT [CAACC], the ligation selection enrichment is 0.126 ± 0.0056.
For the variant GAGACCGCAACTGAAAAGTTGTGGCAACGATAGTGAGTCGCTGCCTGCAAAGACACAACT [CAACG], the ligation selection enrichment came to 0.449 ± 0.066.
In the case of GAGACCGCAACTGAAAAGTTGTGGTAAAGATAGTGAGTCGCTGCCTGCAAAGACACAACT [TAAAG], the ligation selection enrichment was 0.553 ± 0.13.
In the case of GAGACCGCAACTGAAAAGTTGTGGTAAATATAGTGAGTCGCTGCCTGCAAAGACACAACT [TAAAT], the ligation selection enrichment was 0.784 ± 0.063.
On to GAGACCGCAACTGAAAAGTTGTGGTAAACATAGTGAGTCGCTGCCTGCAAAGACACAACT [TAAAC], for which the ligation selection enrichment worked out at 0.176 ± 0.054.
As to GAGACCGCAACTGAAAAGTTGTGGTAAAAATAGTGAGTCGCTGCCTGCAAAGACACAACT [TAAAA], the ligation selection enrichment worked out at 0.145 ± 0.025.
To GAGACCGCAACTGAAAAGTTGTGGAAAGGATAGTGAGTCGCTGCCTGCAAAGACACAACT [AAAGG] belongs 0.44 ± 0.026; to GAGACCGCAACTGAAAAGTTGTGGAAAGCATAGTGAGTCGCTGCCTGCAAAGACACAACT [AAAGC], 0.199 ± 0.038; to GAGACCGCAACTGAAAAGTTGTGGAAAGAATAGTGAGTCGCTGCCTGCAAAGACACAACT [AAAGA], 0.256 ± 0.0097.
On to GAGACCGCAACTGAAAAGTTGTGGCAAGGATAGTGAGTCGCTGCCTGCAAAGACACAACT [CAAGG], for which the ligation selection enrichment stood at 0.2 ± 0.024.
Then GAGACCGCAACTGAAAAGTTGTGGCAAGCATAGTGAGTCGCTGCCTGCAAAGACACAACT [CAAGC], with 0.137 ± 0.042; and GAGACCGCAACTGAAAAGTTGTGGCAAGAATAGTGAGTCGCTGCCTGCAAAGACACAACT [CAAGA], with 0.182 ± 0.036; and GAGACCGCAACTGAAAAGTTGTGGGAACGATAGTGAGTCGCTGCCTGCAAAGACACAACT [GAACG], with 0.626 ± 0.017.
On to GAGACCGCAACTGAAAAGTTGTGGGAACAATAGTGAGTCGCTGCCTGCAAAGACACAACT [GAACA], for which the ligation selection enrichment was 0.191 ± 0.024.
To GAGACCGCAACTGAAAAGTTGTGGGAACTATAGTGAGTCGCTGCCTGCAAAGACACAACT [GAACT] belongs 0.882 ± 0.31.
In the case of GAGACCGCAACTGAAAAGTTGTGGGAACCATAGTGAGTCGCTGCCTGCAAAGACACAACT [GAACC], the ligation selection enrichment is 0.225 ± 0.032.
